B1: ZNF8 (parent)
chain: KPYTCSVCGKSFSRTTCLFLHLRT

Variants of: B1
Test: protein stability index of a GFP-peptide fusion (GPS, HEK-293T) (PSI 1-6); higher = more stable
Settings: c terminus: a fixed tail appended
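Further: lentivirally expressed fusions sorted by FACS into six bins by GFP to DsRed ratio, PSI derived from sequencing read proportions per bin multiplied by bin number.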

Row | Variant | protein stability index
1 | KPYTCSVCAKSFSRTTCLFLHLRT [G9A] | 2.76
2 | KPYTCSVCFKSFSRTTCLFLHLRT [G9F] | 2.12
3 | KPYTCSVCCKSFSRTTCLFLHLRT [G9C] | 2.43
4 | KPYTCSVCHKSFSRTTCLFLHLRT [G9H] | 2.24
5 | KPYTCSVCKKSFSRTTCLFLHLRT [G9K] | 1.87
6 | KPYTCSVCTKSFSRTTCLFLHLRT [G9T] | 1.5
7 | KPYTCSVCEKSFSRTTCLFLHLRT [G9E] | 1.71
8 | KPYTCSVCGKSFSRITCLFLHLRT [T15I] | 2.62
9 | KPYTCSVCGKSFSRVTCLFLHLRT [T15V] | 2.44
10 | KPYTCSVCGKSFSRHTCLFLHLRT [T15H] | 1.83
11 | KPYTCSVCGKSFSRWTCLFLHLRT [T15W] | 2.1
12 | KPYTCSVCGKSFSRPTCLFLHLRT [T15P] | 2.47
13 | KPYTCSVCGKSFSRFTCLFLHLRT [T15F] | 2.9
14 | KPYTCSVCGKSFSRQTCLFLHLRT [T15Q] | 2.61
15 | KPYTCSVCGKSFSRYTCLFLHLRT [T15Y] | 2.31
16 | KPYTCSVCGKSFSRKTCLFLHLRT [T15K] | 2.39
17 | KPYTCSVCGKSFSRCTCLFLHLRT [T15C] | 2.49
18 | KPYTCSVCGKSFSRTTCLFLVLRT [H21V] | 1.8
19 | KPYTCSVCGKSFSRTTCLFLELRT [H21E] | 2.31
20 | KPYTCSVCGKSFSRTTCLFLALRT [H21A] | 2.18
21 | KPYTCSVCGKSFSRTTCLFLTLRT [H21T] | 1.56
22 | KPYTCSVCGKSFSRTTCLFLILRT [H21I] | 1.59
23 | KPYTCSVCGKSFSRTTCLFLQLRT [H21Q] | 2.28
24 | KPYTCSVCGKSFSRTTCLFLKLRT [H21K] | 2.04

Row | Variant | protein stability index
25 | KPYTCSVCGKSFSRTTCLFLDLRT [H21D] | 1.35
26 | KPYTCSVCGKSFSRTTCLFLNLRT [H21N] | 1.6
27 | KPYTCSVCGKSFSRTTCLFLWLRT [H21W] | 1.75
28 | KPYTCSVCGKSFSRTTCLFLRLRT [H21R] | 1.4
29 | KPYVCSVCGKSFSRTTCLFLHLRT [T4V] | 1.69
30 | KPYICSVCGKSFSRTTCLFLHLRT [T4I] | 2.36
31 | KPYDCSVCGKSFSRTTCLFLHLRT [T4D] | 2.75
32 | KPYMCSVCGKSFSRTTCLFLHLRT [T4M] | 1.83
33 | KPYWCSVCGKSFSRTTCLFLHLRT [T4W] | 1.62
34 | KPYHCSVCGKSFSRTTCLFLHLRT [T4H] | 1.8
35 | KPYCCSVCGKSFSRTTCLFLHLRT [T4C] | 2.1
36 | KPYTCSNCGKSFSRTTCLFLHLRT [V7N] | 2.15
37 | KPYTCSRCGKSFSRTTCLFLHLRT [V7R] | 1.68
38 | KPYTCSECGKSFSRTTCLFLHLRT [V7E] | 2.09
39 | KPYTCSMCGKSFSRTTCLFLHLRT [V7M] | 2.29
40 | KPYTCSCCGKSFSRTTCLFLHLRT [V7C] | 2.82
41 | KPYTCSGCGKSFSRTTCLFLHLRT [V7G] | 2.3
42 | KPYTCSKCGKSFSRTTCLFLHLRT [V7K] | 1.75
43 | KPYTCSWCGKSFSRTTCLFLHLRT [V7W] | 1.85
44 | KPYTCSVCGKSFSRTTALFLHLRT [C17A] | 2.19
45 | KPYTCSVCGKSFSRTTILFLHLRT [C17I] | 2.14
46 | KPYTCSVCGKSFSRTTELFLHLRT [C17E] | 3.61
47 | KPYTCSVCGKSFSRTTNLFLHLRT [C17N] | 1.96
48 | KPYTCSVCGKSFSRTTHLFLHLRT [C17H] | 2.04

Row | Variant | protein stability index
49 | KPYTCSVCGKSFSRTTMLFLHLRT [C17M] | 2.13
50 | KPYTCSVCGKSFSRTTDLFLHLRT [C17D] | 3.67
51 | KPYTCSVCGKSFSATTCLFLHLRT [R14A] | 2.39
52 | KPYTCSVCGKSFSQTTCLFLHLRT [R14Q] | 3.25
53 | KPYTCSVCGKSFSDTTCLFLHLRT [R14D] | 3.85
54 | KPYTCSVCGKSFSITTCLFLHLRT [R14I] | 2.66
55 | KPYTCSVCGKSFSLTTCLFLHLRT [R14L] | 1.65
56 | KPYTCSVCGKSFSHTTCLFLHLRT [R14H] | 2.3
57 | KPYTCMVCGKSFSRTTCLFLHLRT [S6M] | 1.63
58 | KPYTCLVCGKSFSRTTCLFLHLRT [S6L] | 1.93
59 | KPYTCEVCGKSFSRTTCLFLHLRT [S6E] | 1.85
60 | KPYTCAVCGKSFSRTTCLFLHLRT [S6A] | 2.4
61 | KPYTCFVCGKSFSRTTCLFLHLRT [S6F] | 2.08
62 | KPYTCCVCGKSFSRTTCLFLHLRT [S6C] | 1.71
63 | KPTTCSVCGKSFSRTTCLFLHLRT [Y3T] | 2.4
64 | KPGTCSVCGKSFSRTTCLFLHLRT [Y3G] | 1.61
65 | KPKTCSVCGKSFSRTTCLFLHLRT [Y3K] | 1.91
66 | KPITCSVCGKSFSRTTCLFLHLRT [Y3I] | 1.7
67 | KPHTCSVCGKSFSRTTCLFLHLRT [Y3H] | 2.46
68 | KPYTCSVCGKSFSRTTCLFLHLPT [R23P] | 2.5
69 | KPYTCSVCGKSFSRTTCLFLHLDT [R23D] | 1.91
70 | KPYTCSVCGKSFSRTTCLFLHLMT [R23M] | 2.23
71 | KPYTCSVCGKSFSRTTCLFLHLAT [R23A] | 2.29
72 | KPYTCSVCGKSFSRTTCLFLHLHT [R23H] | 2.32

Row | Variant | protein stability index
73 | KPYTCSVCGKSFSRTTCLFLHLST [R23S] | 1.83
74 | KPYTCSVCGKSFSRTTCLFLHLET [R23E] | 2.26
75 | KPYTCSVCGKSFSRTTCLFLHLLT [R23L] | 1.65
76 | KPYTCSVCGKSFSRTYCLFLHLRT [T16Y] | 2.03
77 | KPYTCSVCGKSFSRTKCLFLHLRT [T16K] | 1.56
78 | KPYTCSVCGKSFSRTICLFLHLRT [T16I] | 2.44
79 | KPYTCSVCGKSFSRTACLFLHLRT [T16A] | 2.16
80 | KPYTCSVCGKSFSRTQCLFLHLRT [T16Q] | 2.73
81 | KPYTCSVCGKSFSRTPCLFLHLRT [T16P] | 2.67
82 | KPYTCSVCGKSFSRTDCLFLHLRT [T16D] | 2.27
83 | KPYTCSVCGKSFSRTVCLFLHLRT [T16V] | 1.68
84 | KPYTCSVCGKSFSRTRCLFLHLRT [T16R] | 1.82
85 | KPYTCSVCGKSFSRTMCLFLHLRT [T16M] | 1.98
86 | KPYTCSVCGKSFSRTLCLFLHLRT [T16L] | 1.79
87 | KPYTCSVCGKSFSRTWCLFLHLRT [T16W] | 2.19
88 | KGYTCSVCGKSFSRTTCLFLHLRT [P2G] | 3
89 | KMYTCSVCGKSFSRTTCLFLHLRT [P2M] | 1.98
90 | KCYTCSVCGKSFSRTTCLFLHLRT [P2C] | 1.86
91 | KDYTCSVCGKSFSRTTCLFLHLRT [P2D] | 2.33
92 | KNYTCSVCGKSFSRTTCLFLHLRT [P2N] | 2.14
93 | KRYTCSVCGKSFSRTTCLFLHLRT [P2R] | 1.77
94 | KVYTCSVCGKSFSRTTCLFLHLRT [P2V] | 2.46

Reference: the supplement of paper PMC10567573
